{"source": "patent US10829560B2", "about": "“Agents binding specifically to human cadherin-17, human cadherin-5, human cadherin-6 and human cadherin-20 RGD motif” (CONSEJO SUPERIOR DE INVESTIGACIONES CIENTÍFICAS, priority 2015, dated 2020)", "key": {"RKO and KM12SM cells [1]": {"system": "RKO and KM12SM cells", "assay": "Cell adhesion to plates coated with CDH17 domain 6", "assay_type": "cell-based, human", "conditions": "for inhibition of cell adhesion to CDH17 domain 6 wt: FIG. 4B; for optimal dose for promoting cell adhesion to coated plates: FIG. 4A", "procedure": "(§1) For soluble binding assays, cells were detached, incubated for 40 min with CDH17 ectodomain (10 μg/mL) at 37° C. in Ca2+, Mg2+ and Mn2+-free HBSS medium (Life Technologies), washed, incubated with anti-CDH17 antibodies at 4° C., washed again, incubated with secondary antibodies and analyzed by flow cytometry. For cell adhesions to CDH17 Domain 6 (2-10 μg/mL), adhesion assays in 96 wells microtiter plates were performed as above but in medium containing 1 mM MnCl2 and cells were washed gently, using a multi-channel pipette. For blocking assays, cells were preincubated with anti-β1 integrin (5 μg/mL) for 10 min before adhesion."}, "β1 integrin": {"biological_target": "T1, β1 integrin (Homo sapiens, UniProt P05556+P17301)", "T1 construct": "endogenous in cells; host or cells: RKO (A4); RKO, KM12SM, MDA-MB-468 and BLM (A9)", "T1 sequence (P05556 21-798)": "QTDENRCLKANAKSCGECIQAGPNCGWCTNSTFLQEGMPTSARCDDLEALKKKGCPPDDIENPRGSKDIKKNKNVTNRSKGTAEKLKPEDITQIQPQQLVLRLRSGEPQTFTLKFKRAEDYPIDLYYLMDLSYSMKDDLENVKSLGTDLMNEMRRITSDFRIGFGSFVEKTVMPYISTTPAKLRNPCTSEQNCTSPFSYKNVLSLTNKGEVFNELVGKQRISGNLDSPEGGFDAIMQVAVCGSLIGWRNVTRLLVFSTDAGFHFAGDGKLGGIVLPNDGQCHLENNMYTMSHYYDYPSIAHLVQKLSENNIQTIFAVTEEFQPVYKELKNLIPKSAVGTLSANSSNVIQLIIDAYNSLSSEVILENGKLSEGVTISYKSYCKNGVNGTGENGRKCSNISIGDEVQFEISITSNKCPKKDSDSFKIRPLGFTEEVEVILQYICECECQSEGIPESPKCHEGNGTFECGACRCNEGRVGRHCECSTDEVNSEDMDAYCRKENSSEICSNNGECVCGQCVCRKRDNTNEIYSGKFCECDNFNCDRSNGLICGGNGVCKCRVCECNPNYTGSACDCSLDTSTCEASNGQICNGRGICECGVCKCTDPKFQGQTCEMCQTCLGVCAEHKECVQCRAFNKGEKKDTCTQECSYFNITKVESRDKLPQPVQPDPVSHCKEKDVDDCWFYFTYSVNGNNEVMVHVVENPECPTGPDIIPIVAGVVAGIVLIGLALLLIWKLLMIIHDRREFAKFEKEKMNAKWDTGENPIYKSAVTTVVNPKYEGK", "T1 sequence (P17301 30-1181)": "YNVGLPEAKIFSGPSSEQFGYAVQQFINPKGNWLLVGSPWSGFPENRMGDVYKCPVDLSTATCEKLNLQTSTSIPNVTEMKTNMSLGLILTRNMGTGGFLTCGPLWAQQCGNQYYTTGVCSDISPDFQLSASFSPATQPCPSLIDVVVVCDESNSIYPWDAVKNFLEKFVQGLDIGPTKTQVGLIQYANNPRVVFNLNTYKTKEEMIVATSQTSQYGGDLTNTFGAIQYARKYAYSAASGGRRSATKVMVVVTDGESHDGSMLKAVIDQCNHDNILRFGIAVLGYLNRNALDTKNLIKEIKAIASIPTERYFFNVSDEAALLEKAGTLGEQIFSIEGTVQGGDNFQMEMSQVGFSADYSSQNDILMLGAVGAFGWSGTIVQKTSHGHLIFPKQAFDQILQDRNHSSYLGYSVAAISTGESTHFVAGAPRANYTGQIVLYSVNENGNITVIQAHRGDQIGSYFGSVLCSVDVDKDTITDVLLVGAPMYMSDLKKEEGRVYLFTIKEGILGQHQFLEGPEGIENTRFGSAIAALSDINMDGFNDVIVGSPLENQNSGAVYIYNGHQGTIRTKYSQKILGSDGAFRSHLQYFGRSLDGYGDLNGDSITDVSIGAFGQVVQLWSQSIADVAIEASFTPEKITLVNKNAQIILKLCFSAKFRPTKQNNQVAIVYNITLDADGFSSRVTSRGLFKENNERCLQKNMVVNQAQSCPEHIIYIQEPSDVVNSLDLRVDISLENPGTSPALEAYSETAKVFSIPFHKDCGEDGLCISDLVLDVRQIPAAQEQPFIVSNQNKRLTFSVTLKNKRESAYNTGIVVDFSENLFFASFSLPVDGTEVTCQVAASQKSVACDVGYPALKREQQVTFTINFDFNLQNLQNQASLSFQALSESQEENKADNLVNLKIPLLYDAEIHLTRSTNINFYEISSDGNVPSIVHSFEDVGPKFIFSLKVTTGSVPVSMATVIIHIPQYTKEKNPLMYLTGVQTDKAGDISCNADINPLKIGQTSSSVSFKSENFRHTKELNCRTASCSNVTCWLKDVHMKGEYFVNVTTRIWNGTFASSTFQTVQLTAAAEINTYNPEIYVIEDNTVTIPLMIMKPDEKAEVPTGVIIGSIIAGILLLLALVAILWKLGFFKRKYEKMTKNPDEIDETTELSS", "assay": "β1 integrin activation by CDH17 proteins or cadherin RGD peptides (HUTS21 flow cytometry)", "assay_type": "cell-based", "conditions": "for conformational change of β1-integrin into a high affinity conformation: 9 aa peptides, MDA-MB-468, BLM and RKO cells, FIG. 16; for induction of β1 integrin activation: RKO cells, 1 μg/mL peptide, FIG. 17; for β1 integrin in high-affinity conformation: RKO and KM12SM cells, FIG. 5B, 5C", "procedure": "Cells were detached with 2 mM EDTA in PBS, incubated at 4° C. with primary antibodies (10 μg/ml) for 30 min, washed and incubated with Alexa 488 labelled-secondary antibodies (anti-mouse IgG or anti-rabbit IgG, Dako). Fluorescence was analysed in a Coulter Epics XL cytofluorometer. Mean fluorescence intensities for the indicated antibodies are shown inside each panel. As a reference, irrelevant control antibodies (anti-cadherin-11, Santa Cruz Biotechnologies) gave a mean fluorescence intensity of 0.3.\nRKO cells were detached with 2 mm EDTA in PBS, washed with PBS, resuspended in DMEM and incubated with a 9-amino acid peptide containing the RGD motif and the flanking sequences from cadherin 5 (SEQ ID NO: 37 for the RGD motif of domain 2 (CDH5A), and SEQ ID NO: 19 for the RGD motif of domain 3 (CDH5B)), cadherin 6 (SEQ ID NO: 38), cadherin 17 (VSLRGDTRG) (SEQ ID NO: 1), cadherin 20 (SEQ ID NO: 39), and cadherin 16 (SEQ ID NO: 31, RAIRGDTEG) for 25 min at 37° C. in presence of immune sera or control serum (diluted 1:50). After incubation, cells were subjected to flow cytometry assays using anti-β1 integrin in high-affinity conformation antibodies (Huts21, BD Pharmingen) and Alexa 488-coupled anti-mouse IgG antibodies (Abcam). Fluorescence was analysed in a Coulter Epics XL cytofluorometer. Mean fluorescence intensities for the indicated antibodies are shown inside each panel. As a reference, irrelevant control antibodies gave a mean fluorescence intensity of 0.3.\nAlternatively, RKO cells were starved for 4 h, detached with EDTA 2 mM in PBS, and incubated in serum-free DMEM with 1 μg/mL of the following peptides: 9 aa peptides including the RGD motifs and the flanking sequences corresponding to the cadherin 17 (SEQ ID NO: 1) and the two motifs present in cadherin-5 (SEQ ID NO: 37 for the RGD motif of domain 2 (CDH5A), and SEQ ID: 19 for the RGD motif of domain 3 (CDH5B)), and 7 aa or 5 aa peptides with 2 aa or 1 aa respectively in each side of the RGD motif corresponding to the sequence of CDH17, SLRGDTR (SEQ ID NO: 32), and LRGDT (SEQ ID NO: 14), respectively. Simultaneously the cells were incubated to the indicated anti-CDH17 RGD monoclonal antibodies (10 μg/mL). After 40 min, cells were washed and subjected to flow cytometry assays using HUTS21 antibody, which binds to β1-integrin in high affinity conformation. Data were collected in a FACScalibur™ cytometer (BD) and represented as % of the β1-integrin activation induced by the 9 aa CDH17 RGD peptide (SEQ ID NO: 1)."}, "RKO and KM12SM cells [2]": {"system": "RKO and KM12SM cells", "assay": "Cell adhesion to Matrigel after incubation with CDH17 DOM6 or Ecd", "assay_type": "cell-based, human", "conditions": "FIG. 5D", "procedure": "For cell adhesion, 96-well plates were coated with Matrigel (4 μL/mL) (BD Biosciences) or type IV collagen ([…]) (Sigma-Aldrich) in coating buffer (0.1 M NaHCO3 pH 8.8) for 20 h and incubated with adhesion medium (0.4% BSA in serum-free DMEM) for 2 h to block unspecific binding. Cell were starved for 5 h without serum, labeled with BCECF-AM (Invitrogen), detached with 2 mM EDTA in PBS, resuspended in serum-free DMEM and 7×10^4 cells in 100 μL were added to plates in triplicate and then incubated for 25 min. Non-adherent cells were removed by three washes with DMEM. Bound cells were quantified using a fluorescence analyzer (POLARstar Galaxy)."}, "RKO and KM12SM cells [3]": {"system": "RKO and KM12SM cells", "assay": "Soluble binding assay using CDH17 ectodomain as ligand (flow cytometry)", "assay_type": "cell-based, human", "conditions": "10 μg/mL, FIG. 3E", "procedure": "as §1"}}}
{"molecule": "RGDS [RGDS peptide]", "values": [{"measurement": "concentration at which competition of cell adhesion to CDH17 domain 6 wt started", "setting": "RKO and KM12SM cells [1]; both cell lines, 1 mM MnCl2, FIG. 4B", "value": 1, "unit": "µM"}, {"measurement": "inhibition of cell adhesion to CDH17 domain 6 wt", "setting": "RKO and KM12SM cells [1]; both cell lines", "value": "clear dose-dependent effect"}]}
{"molecule": "DMDRGDGSI (listed as Homo sapiens) [SEQ ID NO: 39]", "values": [{"measurement": "conformational change of β1-integrin into a high affinity conformation", "setting": "β1 integrin", "value": "induced the conformational change of β1-integrin into a high affinity conformation"}]}
{"molecule": "RADS [RADS peptide]", "values": [{"measurement": "inhibition of cell adhesion to CDH17 domain 6 wt", "setting": "RKO and KM12SM cells [1]; both cell lines", "value": "did not inhibit cell adhesion"}]}
{"molecule": "LRGDT (listed as Homo sapiens)", "values": [{"measurement": "induction of β1 integrin activation", "setting": "β1 integrin", "value": "able to induce efficiently the integrin activation"}]}
{"molecule": "SILRGDYQD (listed as Homo sapiens) [CDH5 RGD peptide]", "values": [{"measurement": "conformational change of β1-integrin into a high affinity conformation", "setting": "β1 integrin", "value": "induced the conformational change of β1-integrin into a high affinity conformation"}, {"measurement": "induction of β1 integrin activation", "setting": "β1 integrin", "value": "able to activate beta1 integrin"}]}
{"molecule": "QGLRGDSGT (listed as Homo sapiens) [CDH5A]", "values": [{"measurement": "conformational change of β1-integrin into a high affinity conformation", "setting": "β1 integrin", "value": "induced the conformational change of β1-integrin into a high affinity conformation"}, {"measurement": "induction of β1 integrin activation", "setting": "β1 integrin", "value": "able to activate beta1 integrin"}]}
{"molecule": "Ecd RAD: recombinant CDH17 ectodomain mutant lacking RGD motif (RAD)", "values": [{"measurement": "cell adhesion to Matrigel after incubation", "setting": "RKO and KM12SM cells [2]", "value": "significantly enhanced"}, {"measurement": "binding to the cell surface", "setting": "RKO and KM12SM cells [3]", "value": "unable to bind to cells"}]}
{"molecule": "CDH17 ectodomain: purified recombinant CDH17 ectodomain (wild type) expressed in baculovirus", "values": [{"measurement": "cell adhesion to Matrigel after incubation", "setting": "RKO and KM12SM cells [2]", "value": "significant increase in cell adhesion to Matrigel"}, {"measurement": "binding to the cell surface", "setting": "RKO and KM12SM cells [3]", "value": "bound to the cell surface"}, {"measurement": "β1 integrin in high-affinity conformation", "setting": "β1 integrin", "value": "enhanced the amount of β1 integrin in high-affinity conformation"}]}
{"molecule": "SLRGDTR (listed as Homo sapiens)", "values": [{"measurement": "induction of β1 integrin activation", "setting": "β1 integrin", "value": "able to induce efficiently the integrin activation"}]}
{"molecule": "VSLRGDTRG (listed as Homo sapiens) [CDH17 peptide]", "values": [{"measurement": "conformational change of β1-integrin into a high affinity conformation", "setting": "β1 integrin", "value": "induced the conformational change of β1-integrin into a high affinity conformation"}, {"measurement": "β1 integrin in high-affinity conformation", "setting": "β1 integrin", "value": "increased high-affinity conformation β1 integrin in both cell lines"}]}
{"molecule": "RAIRRGDTEG (listed as Homo sapiens) [CDH16 RGD, reference compound]", "values": [{"measurement": "β1 integrin in high-affinity conformation", "setting": "β1 integrin", "value": "had no effect on β1 integrin activation"}]}
{"molecule": "DQDRGDGSL (listed as Homo sapiens) [SEQ ID NO: 38]", "values": [{"measurement": "conformational change of β1-integrin into a high affinity conformation", "setting": "β1 integrin", "value": "induced the conformational change of β1-integrin into a high affinity conformation"}]}
{"molecule": "RAIRGDTEG (listed as Homo sapiens) [SEQ ID NO: 31, reference compound]", "values": [{"measurement": "conformational change of β1-integrin into a high affinity conformation", "setting": "β1 integrin", "value": "not"}]}
{"molecule": "domain 6 wt: recombinant CDH17 domain 6 (571-665) expressed in E. coli (protein) FQAKVSEDVAIGTKVGNVTAKDPEGLDISYSLRGDTRGWLKIDHVTGEIFSVAPLDREAGSPYRVQVVATEVGGSSLSSVSEFHLILMDVNDNPP", "values": [{"measurement": "optimal dose for promoting cell adhesion to coated plates", "setting": "RKO and KM12SM cells [1]; KM12SM", "value": 10, "unit": "µg/mL"}, {"measurement": "optimal dose for promoting cell adhesion to coated plates", "setting": "RKO and KM12SM cells [1]; RKO", "value": 2, "unit": "µg/mL"}, {"measurement": "cell adhesion to Matrigel after incubation", "setting": "RKO and KM12SM cells [2]", "value": "significant increase in cell adhesion to Matrigel"}, {"measurement": "cell adhesion to Matrigel after incubation", "setting": "RKO and KM12SM cells [2]; listed as CDH17 DOM6 wt", "value": "significantly enhanced"}, {"measurement": "β1 integrin in high-affinity conformation", "setting": "β1 integrin", "value": "enhanced the amount of β1 integrin in high-affinity conformation"}]}
